In paper PMC6386614:

Target: T1, hnRNP H1-His6 (UniProt P31943 1-449)
T1 sequence: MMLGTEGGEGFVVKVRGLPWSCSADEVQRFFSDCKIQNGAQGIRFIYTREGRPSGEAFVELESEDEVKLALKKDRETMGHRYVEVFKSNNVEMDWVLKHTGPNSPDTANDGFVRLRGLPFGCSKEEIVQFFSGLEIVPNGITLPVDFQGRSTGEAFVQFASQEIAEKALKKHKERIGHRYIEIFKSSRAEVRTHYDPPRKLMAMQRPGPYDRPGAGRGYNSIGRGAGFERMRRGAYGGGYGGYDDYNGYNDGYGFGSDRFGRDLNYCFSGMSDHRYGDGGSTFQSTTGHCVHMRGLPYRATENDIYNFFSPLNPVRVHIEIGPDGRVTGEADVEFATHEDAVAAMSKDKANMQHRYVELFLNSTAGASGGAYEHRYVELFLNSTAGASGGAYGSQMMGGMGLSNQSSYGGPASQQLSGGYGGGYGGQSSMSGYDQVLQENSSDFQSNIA
Assay: EMSA

## GGGGCCGGGGCCGGGGCCGGGGCCGGGGCCGGGGCCGGGGCCGGGGCC (structured_RNA) [r(G4C2)8 (32P)]
  Kd: 65 ± 26 nM
